Results on one molecule are retold here after patent US20050196797A1 (JAPAN SCIENCE AND TECHNOLOGY AGENCY, published 2005).

In this assay the target is human SMG-1 (hSMG-1) (human, UniProt Q96Q15 1-3661, limits assumed). In words: cell-based or functional assay.
human SMG-1 (hSMG-1), sequence (Q96Q15 whole entry): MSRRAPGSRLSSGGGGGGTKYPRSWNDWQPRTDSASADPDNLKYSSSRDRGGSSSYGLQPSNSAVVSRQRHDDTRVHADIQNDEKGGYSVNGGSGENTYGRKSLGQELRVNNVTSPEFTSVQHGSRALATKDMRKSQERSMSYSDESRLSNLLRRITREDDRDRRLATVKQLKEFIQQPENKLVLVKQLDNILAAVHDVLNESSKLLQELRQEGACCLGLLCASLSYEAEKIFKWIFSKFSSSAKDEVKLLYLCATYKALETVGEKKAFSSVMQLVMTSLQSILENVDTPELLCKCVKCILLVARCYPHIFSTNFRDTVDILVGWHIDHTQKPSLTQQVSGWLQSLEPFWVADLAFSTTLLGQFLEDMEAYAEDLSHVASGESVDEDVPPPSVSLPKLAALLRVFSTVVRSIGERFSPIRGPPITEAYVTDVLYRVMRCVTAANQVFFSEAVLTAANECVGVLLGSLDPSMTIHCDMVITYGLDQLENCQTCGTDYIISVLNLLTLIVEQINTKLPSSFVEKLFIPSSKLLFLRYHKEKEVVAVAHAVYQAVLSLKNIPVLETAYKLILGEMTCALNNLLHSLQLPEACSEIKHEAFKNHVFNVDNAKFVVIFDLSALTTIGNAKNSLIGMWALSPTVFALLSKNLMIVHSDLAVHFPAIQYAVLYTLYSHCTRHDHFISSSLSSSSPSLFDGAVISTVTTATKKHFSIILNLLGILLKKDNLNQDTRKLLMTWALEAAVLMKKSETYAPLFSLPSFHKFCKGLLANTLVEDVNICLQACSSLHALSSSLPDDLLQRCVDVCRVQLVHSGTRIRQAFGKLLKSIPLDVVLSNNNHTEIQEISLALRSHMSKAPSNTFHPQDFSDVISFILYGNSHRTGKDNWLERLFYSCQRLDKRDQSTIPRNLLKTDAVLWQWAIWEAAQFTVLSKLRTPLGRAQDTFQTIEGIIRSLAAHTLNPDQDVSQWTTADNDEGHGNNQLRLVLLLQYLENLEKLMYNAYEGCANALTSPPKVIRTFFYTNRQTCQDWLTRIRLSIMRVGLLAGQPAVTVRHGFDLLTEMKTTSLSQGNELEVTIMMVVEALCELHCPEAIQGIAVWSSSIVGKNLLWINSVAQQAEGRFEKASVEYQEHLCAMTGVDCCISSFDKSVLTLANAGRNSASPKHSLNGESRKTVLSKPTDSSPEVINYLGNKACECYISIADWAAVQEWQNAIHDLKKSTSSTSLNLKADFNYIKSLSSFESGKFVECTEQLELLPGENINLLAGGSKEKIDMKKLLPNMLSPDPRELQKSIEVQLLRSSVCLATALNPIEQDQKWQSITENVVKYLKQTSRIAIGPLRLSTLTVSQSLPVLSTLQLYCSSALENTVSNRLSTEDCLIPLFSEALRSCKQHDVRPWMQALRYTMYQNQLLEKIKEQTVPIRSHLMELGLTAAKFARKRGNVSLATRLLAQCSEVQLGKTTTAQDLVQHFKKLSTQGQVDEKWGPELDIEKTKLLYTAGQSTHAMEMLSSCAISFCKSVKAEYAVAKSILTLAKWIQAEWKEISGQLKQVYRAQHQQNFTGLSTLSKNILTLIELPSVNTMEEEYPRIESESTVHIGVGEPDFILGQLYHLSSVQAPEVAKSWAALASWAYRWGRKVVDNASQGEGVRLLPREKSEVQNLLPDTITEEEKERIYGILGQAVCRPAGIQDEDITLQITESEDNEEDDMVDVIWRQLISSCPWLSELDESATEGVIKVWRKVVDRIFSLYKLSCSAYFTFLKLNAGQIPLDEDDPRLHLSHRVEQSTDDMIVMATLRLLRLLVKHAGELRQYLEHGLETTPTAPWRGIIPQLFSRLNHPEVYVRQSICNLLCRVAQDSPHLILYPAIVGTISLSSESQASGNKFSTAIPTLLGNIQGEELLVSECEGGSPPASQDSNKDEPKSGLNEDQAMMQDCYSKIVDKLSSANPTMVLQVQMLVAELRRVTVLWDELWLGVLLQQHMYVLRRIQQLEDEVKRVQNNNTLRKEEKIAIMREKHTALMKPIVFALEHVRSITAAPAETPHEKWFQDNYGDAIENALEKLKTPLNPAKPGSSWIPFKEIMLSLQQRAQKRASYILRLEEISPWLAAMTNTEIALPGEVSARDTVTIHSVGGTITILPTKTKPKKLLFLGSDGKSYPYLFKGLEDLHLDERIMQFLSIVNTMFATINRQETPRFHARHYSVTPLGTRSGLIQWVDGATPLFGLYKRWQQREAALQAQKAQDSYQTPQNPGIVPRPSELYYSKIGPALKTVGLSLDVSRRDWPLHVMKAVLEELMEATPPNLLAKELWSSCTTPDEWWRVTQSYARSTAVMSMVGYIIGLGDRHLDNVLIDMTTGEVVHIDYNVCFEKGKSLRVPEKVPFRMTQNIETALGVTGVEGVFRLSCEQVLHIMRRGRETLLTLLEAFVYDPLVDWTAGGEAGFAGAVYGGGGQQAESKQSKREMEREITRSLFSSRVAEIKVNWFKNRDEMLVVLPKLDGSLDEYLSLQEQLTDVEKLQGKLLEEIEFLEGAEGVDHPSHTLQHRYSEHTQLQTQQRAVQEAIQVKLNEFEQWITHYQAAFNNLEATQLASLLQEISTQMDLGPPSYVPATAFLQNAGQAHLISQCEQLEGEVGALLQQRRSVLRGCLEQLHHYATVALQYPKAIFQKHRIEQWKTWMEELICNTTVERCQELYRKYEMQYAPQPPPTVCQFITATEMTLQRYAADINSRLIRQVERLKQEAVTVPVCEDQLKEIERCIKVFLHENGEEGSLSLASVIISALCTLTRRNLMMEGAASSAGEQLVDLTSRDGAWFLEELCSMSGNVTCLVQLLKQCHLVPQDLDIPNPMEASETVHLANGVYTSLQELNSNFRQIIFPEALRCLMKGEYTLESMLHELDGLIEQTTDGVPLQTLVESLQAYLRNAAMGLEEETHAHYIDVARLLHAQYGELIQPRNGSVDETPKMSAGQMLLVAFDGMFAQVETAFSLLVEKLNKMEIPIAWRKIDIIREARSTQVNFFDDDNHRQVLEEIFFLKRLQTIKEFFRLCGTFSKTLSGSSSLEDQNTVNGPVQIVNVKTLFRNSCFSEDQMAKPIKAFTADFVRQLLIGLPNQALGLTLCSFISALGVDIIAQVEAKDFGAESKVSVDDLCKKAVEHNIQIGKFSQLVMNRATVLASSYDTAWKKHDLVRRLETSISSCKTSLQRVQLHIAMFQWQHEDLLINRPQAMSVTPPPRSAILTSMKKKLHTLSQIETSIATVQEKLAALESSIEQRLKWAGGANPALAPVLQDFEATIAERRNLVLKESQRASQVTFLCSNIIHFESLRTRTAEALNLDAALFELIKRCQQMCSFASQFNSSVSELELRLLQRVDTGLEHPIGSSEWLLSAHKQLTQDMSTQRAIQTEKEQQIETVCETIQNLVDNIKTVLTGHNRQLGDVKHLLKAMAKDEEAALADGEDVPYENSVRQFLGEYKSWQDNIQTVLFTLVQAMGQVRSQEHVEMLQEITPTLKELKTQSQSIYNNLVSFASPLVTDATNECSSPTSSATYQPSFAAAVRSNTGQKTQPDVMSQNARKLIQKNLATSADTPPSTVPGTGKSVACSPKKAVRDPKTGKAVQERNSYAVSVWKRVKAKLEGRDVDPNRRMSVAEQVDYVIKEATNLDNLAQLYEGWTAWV

B1: SMGBP1 (SMG Binding Protein 1) (other)
chain: MAGPVSLRDLLMGASAWMGSESPGGSPTEGGGSAAGGPEPPWREDEICVVGIFGKTALRLNSEKFSLVNTVCDRQVFPLFRHQDPGDPGPGIRTEAGAVGEAGGAEDPGAAAGGSVRGSGAVAEGNRTEAGSQDYSLLQAYYSQESKVLYLLLTSICDNSQLLRACRALQSGEAGGGLSLPHAEAHEFWKHQEKLQCLSLLYLFSVCHILLLVHPTCSFDITYDRVFRALDGLRQKVLPLLKTAIKDCPVGKDWKLNCRPCPPRLLFLFQLNGALKVVPPRNQDPAHPDKPKKHSPKRRLQHALEDQIYRIFRKSRVLTNQSINCLFTVPANQAFVYIVPGSQEEDPVGMLLDQLRSHCTVKDPESLLVPAPLSGPRRYQVMRQHSRQQLSFHIDSSSSSSSGQLVDFTLWEFLWQHVELVLSKKGFDDSVGRNPQPSHFELPTYQKWISAASKLYEVAIDGKEEDLGSPTGELTSKILSSIKVLEGFLDIDTKFSENRCQKALPMAHSAYQSNLPHNYTMTVHKNQLAQALRVYSQHARGPAFHKYAMQLHEDCYKFWSNGHQLCEERSLTDQHCVHKFHSLPKSGEKPEADRNPPVLYHNSRARSTGACNCGRKQAPRDDPFDIKAANYDFYQLLEEKCCGKLDHINFPVFEPSTPDPAPAKNESSPAPPDSDADKLKEKEPQTQGESTSLSLALSLGQSTDSLGTYPADPQAGGDNPEVHGQVEVKTEKRPNFVDRQASTVEYLPGMLHSNCPKGLLPKFSSWSLVKLGPAKSYNFHTGLDQQGFIPGTNYLMPWDIVIRTRAEDEGDLDTNSWPAPNKAIPGKRSAVVMGRGRRRDDIARAFVGFEYEDSRGRRFMCSGPDKVMKVMGSGPKESALKALNSDMPLYILSSSQGRGLKPHYAQLMRLFVVVPDAPLQIILMPQVQPGPPPCPVFYPEKQEITLPPDGLWVLRFPYAYVTERGPCFPPKENVQLMSYKVLRGVLKAVTQ
Turning to B1, the “phosphorylation of hUPF1 (P-hUPF1/hUPF1) in HeLa TetOff cells transfected with siRNA against p130, relative to control siRNA” value was ~40%.
